According to US7259247:

Target: CD28 (UniProt P10747)
Experiment: cell-based or functional assay

Chain of UniProt P10747 (P10747 19-220 limits assumed): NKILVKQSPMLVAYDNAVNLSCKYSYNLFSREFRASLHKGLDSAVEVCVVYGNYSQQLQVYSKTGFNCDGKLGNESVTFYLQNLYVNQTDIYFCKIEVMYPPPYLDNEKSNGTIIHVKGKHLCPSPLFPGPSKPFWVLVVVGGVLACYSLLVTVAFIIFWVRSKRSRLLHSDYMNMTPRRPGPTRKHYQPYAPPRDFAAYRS

anti-CD28 antibody 9.3
expression of other activation antigens on CD4+ T cells, suboptimal OKT3, plate-bound antibody costimulation: 4 to 100 fold
